# Where a chain is given by its changes, count along the chain named. Names and notes keep the numbering of the source. Read-outs that look alike come from different tables or passages of the source.
# T1: full length extracellular domain of human-CD73 with C-terminal polyhistidine tag (residues 26-546) (human, UniProt P21589 26-546)
# T1 construct: range 26-546; also called hCD73-his; CD73-his
# T1 sequence (looked up): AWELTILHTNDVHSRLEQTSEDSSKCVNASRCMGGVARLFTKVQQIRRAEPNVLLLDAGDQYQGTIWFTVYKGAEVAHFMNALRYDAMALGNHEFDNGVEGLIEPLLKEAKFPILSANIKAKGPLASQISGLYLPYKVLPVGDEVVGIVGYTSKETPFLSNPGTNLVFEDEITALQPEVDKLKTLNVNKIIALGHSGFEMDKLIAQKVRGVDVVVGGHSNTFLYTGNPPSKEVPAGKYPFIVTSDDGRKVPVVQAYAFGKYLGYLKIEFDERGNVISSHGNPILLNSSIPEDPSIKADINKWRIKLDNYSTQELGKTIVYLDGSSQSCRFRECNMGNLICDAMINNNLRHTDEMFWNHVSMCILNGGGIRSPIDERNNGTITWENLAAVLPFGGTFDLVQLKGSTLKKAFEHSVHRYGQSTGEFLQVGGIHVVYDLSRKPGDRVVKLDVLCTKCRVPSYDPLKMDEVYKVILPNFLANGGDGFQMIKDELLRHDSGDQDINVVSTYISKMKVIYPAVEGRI
# T2: human CD73 on human tumor cell lines (human, UniProt P21589 27-549)
# T2 sequence (looked up): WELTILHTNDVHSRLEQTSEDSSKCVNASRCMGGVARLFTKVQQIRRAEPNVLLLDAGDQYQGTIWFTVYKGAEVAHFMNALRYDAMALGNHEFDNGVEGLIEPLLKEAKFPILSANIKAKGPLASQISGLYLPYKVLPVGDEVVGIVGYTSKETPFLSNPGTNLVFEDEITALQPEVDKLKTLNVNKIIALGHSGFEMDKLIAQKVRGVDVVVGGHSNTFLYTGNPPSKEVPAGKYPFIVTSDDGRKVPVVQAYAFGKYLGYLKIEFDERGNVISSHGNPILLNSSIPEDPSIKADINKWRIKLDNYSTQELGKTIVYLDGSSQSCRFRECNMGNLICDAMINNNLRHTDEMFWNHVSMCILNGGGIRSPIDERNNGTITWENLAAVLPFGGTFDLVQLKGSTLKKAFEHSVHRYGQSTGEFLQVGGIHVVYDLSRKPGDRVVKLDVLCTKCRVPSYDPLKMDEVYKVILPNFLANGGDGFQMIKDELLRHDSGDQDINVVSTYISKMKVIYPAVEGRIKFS
# B1: CD73.4-IgG2.3-plusTHT (antibody)
# heavy: QVQLVESGGGVVQPGRSLRLSCAASGFTFSNYGMHWVRQAPGKGLEWVAVILYDGSNKYYPDSVKGRFTISRDNSKNTLYLQMNSLRAEDTAVYYCARGGSSWYPDSFDIWGQGTMVTVSSASTKGPSVFPLAPCSRSTSESTAALGCLVKDYFPEPVTVSWNSGALTSGVHTFPAVLQSSGLYSLSSVVTVPSSNFGTQTYTCNVDHKPSNTKVDKTVERKSCVETHTCPPCPAPPVAGPSVFLFPPKPKDTLMISRTPEVTCVVVDVSHEDPEVQFNWYVDGVEVHNAKTKPREEQFNSTFRVVSVLTVVHQDWLNGKEYKCKVSNKGLPAPIEKTISKTKGQPREPQVYTLPPSREEMTKNQVSLTCLVKGFYPSDIAVEWESNGQPENNYKTTPPMLDSDGSFFLYSKLTVDKSRWQQGNVFSCSVMHEALHNHYTQKSLSLSPGK
# light: not shown
# notes: also called mAb-CD73.4-IgG2.3-plusTHT; CD73.4-Vh-hHC-IgG2.3-plusTHT
# B2: CD73.4-IgG2.5-plusTHT (antibody)
# heavy: B1 heavy with C135S, S223C
# light: not shown
# notes: also called mAb-CD73.4-IgG2.5plusTHT/LC; CD73.4-Vh-hHC-IgG2.5plusTHT/LC
# B3: CD73.4-IgG2.3-plusGGG (antibody)
# heavy: B1 heavy with T227G, H228G, T229G
# light: not shown
# notes: also called mAb-CD73.4-IgG2.3-plusGGG; CD73.4-Vh-hHC-IgG2.3-plusGGG
# B4: CD73.4-IgG2.5G1-KH (antibody)
# heavy: QVQLVESGGGVVQPGRSLRLSCAASGFTFSNYGMHWVRQAPGKGLEWVAVILYDGSNKYYPDSVKGRFTISRDNSKNTLYLQMNSLRAEDTAVYYCARGGSSWYPDSFDIWGQGTMVTVSSASTKGPSVFPLAPSSRSTSESTAALGCLVKDYFPEPVTVSWNSGALTSGVHTFPAVLQSSGLYSLSSVVTVPSSNFGTQTYTCNVDHKPSNTKVDKTVERKCCVECPPCPAPPVAGPSVFLFPPKPKDTLMISRTPEVTCVVVDVSHEDPEVKFNWYVDGVEVHNAKTKPREEQYNSTYRVVSVLTVLHQDWLNGKEYKCKVSNKALPAPIEKTISKAKGQPREPQVYTLPPSREEMTKNQVSLTCLVKGFYPSDIAVEWESNGQPENNYKTTPPVLDSDGSFFLYSKLTVDKSRWQQGNVFSCSVMHEALHNHYTQKSLSLSPGK
# light: not shown
# notes: also called mAb-CD73.4-IgG2.5G1-KH; CD73.4-Vh-hHC-IgG2.5G1-KH
# B5: CD73.4-IgG2-C219S-IgG1.1f (antibody)
# heavy: B4 heavy with S135C, C223S, A330S, P331S
# light: not shown
# notes: also called CD73.4-IgG2CS-IgG1.1f; CD73.4-IgG2.3G1.1f-KH
# B6: CD73.4-IgG2.5G1.1f-KH (antibody)
# heavy: B4 heavy with A330S, P331S
# light: not shown
# notes: also called mAb-CD73.4-IgG2.5G1.1f-KH; CD73.4-Vh-hHC-IgG2.5G1.1f-KH
# B7: CD73.4-IgG2.3G1-KH (antibody)
# heavy: B4 heavy with S135C, C223S
# light: not shown
# notes: also called mAb-CD73.4-IgG2.3G1-KH; CD73.4-Vh-hHC-IgG2.3G1-KH
# B8: CD73.4-IgG2.5 (antibody)
# heavy: B4 heavy with K274Q, Y296F, Y300F, L309V, A327G, A339T, V397M
# light: not shown
# notes: also called mAb-CD73.4-IgG2.5; CD73.4-Vh-hHC-IgG2.5
# Legend:
# [1] = target: T1, full length extracellular domain of …; test: SEC, 1:1 molar mix 5.5 uM each
# Protocol: The oligomeric state of CD73/antibody complexes were examined by size-exclusion chromatography coupled to an in-line multi-angle light scattering detector (SEC-MALS). Isocratic separations were performed on a Shodex PROTEIN KW-803 column connected to an Prominence Shimadzu UFLC in buffer containing 200 mM K₂HPO₄, 150 mM NaCl, pH 6.8, containing 0.02% Na azide (0.1 μm filtered) running at 0.5 mL/min. Samples were injected onto the column using a SIL-20AC Prominence Shimadzu autosampler, and data were obtained from three online detectors connected in series: a Prominence SPD-20AD diode array UV/vis spectrophotometer followed by a Wyatt miniDAWN™ TREOS Multi-Angle Light Scattering Detector then a Wyatt Optilab T-rEX Refractive Index Detector. Data were collected and analyzed using Astra (Wyatt) and Labsolutions (Shimadzu) software.
# CD73.4 antibodies having the heavy chain constant regions set forth in Table 14 were also tested for formation of high molecular weight complexes by SEC-MALS and DLS experiments, as described in Example 3.
# [2] = target: T2, human CD73 on human tumor cell lines; test: cell-based or functional assay
# [3] = target: T2, human CD73 on human tumor cell lines; test: cell-based or functional assay; remark: listed apart in the source
Binder,UV % Peak1 <12.9 min [1] [%],UV % Peak4 16.7-19.3 min (free mAb) [1] [%],UV % Peak5 >19.3 min [1] [%],"T1/2 internalization, Calu6 [2] [min]","T1/2 internalization, NCI-H292 [2] [min]","Ymax internalization, Calu6 [2] [%]","Ymax internalization, NCI-H292 [2] [%]","T1/2 internalization, Calu6 [3] [min]","T1/2 internalization, NCI-H292 [3] [min]","T1/2 internalization, NCI-H1437 [3] [min]","T1/2 internalization, NCI-H1437 (no wash) [3] [min]","T1/2 internalization, SNU-C1 [3] [min]","T1/2 internalization, SNU-C1 (no wash) [3] [min]","Ymax internalization, Calu6 [3] [%]","Ymax internalization, NCI-H292 [3] [%]"
B1,30.6,33.7,3.2,21.3,17.6,81.2,91.4,,,,,,,,
B2,,,,17.2,15.4,80.2,89.6,,,,,,,,
B3,,,,20.1,16.3,81.7,91.6,,,,,,,,
B4,,,,17,15.4,76,90.8,,,,,,,,
B5,,,,21,16.6,81,90.3,34,15.8,19,20.5,29.7,61.5,76.8,77.6
B6,,,,21.2,18,79.6,90.9,,,,,,,,
B7,,,,23.8,16.8,81.6,91.6,,,,,,,,
B8,,,,20.9,18.3,79,89.6,,,,,,,,

# From US20220106400A1 (Bristol-Myers Squibb, published 2022)
